The record followed here is patent publication KR20220022226A (dated 2022).

The target in one test is T1, GST 택(tag)이 달린 IL-33 (human, UniProt O95760 112-270).
T1 construct: also called GST-IL-33; 재조합 GST-IL-33; not shown: Glutathione S-transferase (GST) tag; It is N-terminal, since stop codons pla
T1 sequence: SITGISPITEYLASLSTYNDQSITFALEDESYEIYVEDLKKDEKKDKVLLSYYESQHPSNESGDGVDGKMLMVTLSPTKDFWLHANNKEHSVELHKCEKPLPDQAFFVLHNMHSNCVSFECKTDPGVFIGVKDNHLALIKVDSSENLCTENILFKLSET
Description: ELISA, antigen fixed and scFv titrated.

Another test deals with IL-1b (UniProt P01584 117-269). In words: immunoblot, C2_2E12 as primary antibody, anti-HA-HRP as secondary.
In another test the target is T2, BSA (UniProt P02769 25-607).
T2 construct: Unrelated control protein in the immunoblot
The test is described as above.

The target in a further test is IL-6 (UniProt P05231 30-212). The description is as above.

Residue numbers refer to the chain shown, from its start.

T2 sequence (P02769 25-607 limits assumed): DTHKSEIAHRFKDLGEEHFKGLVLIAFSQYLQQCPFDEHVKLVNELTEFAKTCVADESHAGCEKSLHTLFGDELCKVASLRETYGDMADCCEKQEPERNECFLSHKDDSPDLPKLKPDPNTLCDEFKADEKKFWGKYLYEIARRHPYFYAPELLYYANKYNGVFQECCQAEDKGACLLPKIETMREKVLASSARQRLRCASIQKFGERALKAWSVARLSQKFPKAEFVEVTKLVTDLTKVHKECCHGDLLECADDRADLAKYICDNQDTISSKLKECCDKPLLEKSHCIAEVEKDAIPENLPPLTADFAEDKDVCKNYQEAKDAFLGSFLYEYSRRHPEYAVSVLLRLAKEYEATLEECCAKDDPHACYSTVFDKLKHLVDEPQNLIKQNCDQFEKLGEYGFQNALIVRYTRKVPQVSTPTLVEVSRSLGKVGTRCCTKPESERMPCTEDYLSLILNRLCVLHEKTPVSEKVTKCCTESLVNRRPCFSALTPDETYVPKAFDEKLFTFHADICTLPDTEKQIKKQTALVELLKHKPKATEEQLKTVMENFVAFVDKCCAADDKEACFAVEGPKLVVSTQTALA

B1: C2_1D5 (scFv)
scFv: EVQLLESGGGLVQPGGSLRLSCAASGFTFSSYYMSWVRQAPGKGLEWVSAISPGSSNKYYADSVKGRFTISRDNSKNTLYLQMNSLRAEDTAVYYCARLLSAFDYWGQGTLVTVSSGGGGSGGGGSGGGGSQSVLTQPPSASGTPGQRVTISCSGSSSNIGSNDVSWYQQLPGTAPKLLIYSDSNRPSGVPDRFSGSKSGTSASLAISGLRSEDEADYYCGAWDSSLSGYVFGGGTKLTVLGQAGQHHHHHHGAYPYDVPDYAS
notes: scFv clone from a synthetic human scFv phage library; also called Anti-IL-33 scFv C2_1D5
In the case of B1, in the test with GST 택(tag)이 달린 IL-33, binding was put at a Kd of 36 nM.

B2: C1_1E1 (scFv)
scFv: B1 scFv with R98K, L100T, G120D, S154T, S166T, S184N, N185K, D214E
notes: scFv clone from a synthetic human scFv phage library; also called Anti-IL-33 scFv C1_1E1
With B2, in the test with GST 택(tag)이 달린 IL-33, the Kd (in general, the concentration at which binding is half-saturated) came out at 48 nM.

B3: C2_2A10 (scFv)
scFv: EVQLLESGGGLVQPGGSLRLSCAASGFTFSSYYMSWVRQAPGKGLEWVSAISPGSSNKYYADSVKGRFTISRDNSKNTLYLQMNSLGAEDTAVYYCAKLLTGFDYWGQGTLVTVSSGGGGSGGGGSGGGGSQSVLTQPPSASGTPGQRVTISCSGSSSNIGNNAVSWYQQLPGTAPKLLIYDDNHRPSGVPDRFSGSKSGTSASLAISGLRSEDEADYYCGTWDSSLSAYVFGGGTKLTVLGQAGQHHHHHHGAYPYDVPDYAS
notes: scFv clone from a synthetic human scFv phage library; also called Anti-IL-33 scFv C2_2A10
B3 gave a Kd with GST 택(tag)이 달린 IL-33 of 57 nM.

B4: C2_2E1 (scFv)
scFv: B1 scFv with K43R, L99M, L100T, A102S, S162N, N185Q, A222S, S225Y, G229A
notes: scFv clone from a synthetic human scFv phage library; also called Anti-IL-33 scFv C2_2E1
Take B4: binding in the test with GST 택(tag)이 달린 IL-33 was put at a Kd of 35 nM.

B5: C2_2E12 (scFv)
scFv: EVQLLESGGGLVQPGGSLRLSCAASGFTFSSYYMSWVRQAPGKGLEWVSAISPGSSNKYYADSVKGRFTISRDNSKNTLYLQMNSLRAEDTAVYYCARLTLSFDYWGQGTPVTVSSGGGGSGGGGSGGGGSQSVLTQPPSASGTPGQRVTISCSGSSSNIGSNDVSWYQQLPGTAPKLLIYADSKRPSGVPDRFSGSKSGTSASLAISGLRSEDEADYYCASWDSSLSAYVFGGGTKLTVLG
notes: The recombinant scFv was purified on Ni-NTA agarose and detected with anti-HA-HRP, so the protein tested probably carried His and HA tags; also called Anti-IL-33 scFv C2_2E12; 재조합 C2_2E12 scFv 항체
Consider B5, for which the binding result with IL-1b was “no binding (tested: 0.5 mg/ml, 1:100 희석)”; with BSA it was “no binding (tested: 0.5 mg/ml, 1:100 희석)”; in the test with IL-6, “no binding (tested: 0.5 mg/ml, 1:100 희석)”. In the test with GST 택(tag)이 달린 IL-33, the Kd turned out to be 28 nM.

B6: C2_2H5 (scFv)
scFv: EVQLLESGGGLVQPGGSLRLSCAASGFTFSSYYMSWVRQAPGKGLEWVSAISPGSSNKYYADSVKGQFTISRDNSKNTLYLQMNSLRAEDTAVYYCAKLSQSFDYWGQGTLVTVSSGGGGSGGGGSGGSGSQSVLTQPPSASGTPGQRVTISCTGSSSNIGNNGISWYQQLPGTAPKLLIYDNSHRPSGVPDRFSGSKSGTSASLAISGLRSEDETDYYCASWDSSLSGYVFGGGTKLTVLGQAGQHHHHHHGAYPYDVPDYAS
notes: scFv clone from a synthetic human scFv phage library; also called Anti-IL-33 scFv C2_2H5
For the molecule B6, in the test with GST 택(tag)이 달린 IL-33, the Kd worked out at 31 nM.
